Each block holds one binder with its values, some of them ahead of it.
Tests used:
[1] = target: T1, human IGSF11 (VSIG3) expressed on the surface of cells (human, UniProt Q5DX21 23-431); experiment: FACS on M579-A2-luc cells treated with IGSF11 siRNA (KD: target knocked down, specificity control)
T1 construct: one molecule for all cell lines; the cell line is named under assay; also called IGSF11-expressing cells; HEK-OE
T1 sequence: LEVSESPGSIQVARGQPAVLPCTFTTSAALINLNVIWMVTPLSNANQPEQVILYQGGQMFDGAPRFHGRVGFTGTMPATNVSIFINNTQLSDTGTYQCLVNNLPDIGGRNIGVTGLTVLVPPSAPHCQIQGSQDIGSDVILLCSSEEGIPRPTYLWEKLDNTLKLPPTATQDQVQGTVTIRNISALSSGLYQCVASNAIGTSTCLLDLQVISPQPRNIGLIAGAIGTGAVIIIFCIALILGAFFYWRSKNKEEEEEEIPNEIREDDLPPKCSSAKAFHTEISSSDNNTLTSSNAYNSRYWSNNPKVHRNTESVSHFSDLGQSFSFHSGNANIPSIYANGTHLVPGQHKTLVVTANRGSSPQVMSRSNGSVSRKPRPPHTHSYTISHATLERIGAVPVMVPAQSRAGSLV

CL-11 (C) [2] = experiment: FACS on CL-11 cells (do not express IGSF11; negative cell line) treated with IGSF11 siRNA (KD)
[3] = target: T1, human IGSF11 (VSIG3) expressed on the …; experiment: FACS on DMS 273 cells treated with IGSF11 siRNA (KD: target knocked down, specificity control)
[4] = target: T1, human IGSF11 (VSIG3) expressed on the …; experiment: FACS on DMS 273 cells treated with scrambled control siRNA (SC)
CL-11 (C) [5] = experiment: FACS on CL-11 cells (do not express IGSF11; negative cell line) treated with scrambled control siRNA (SC)
[6] = target: T1, human IGSF11 (VSIG3) expressed on the …; experiment: FACS on M579-A2-luc cells treated with scrambled control siRNA (SC)
[7] = target: T2, extracellular domain (ECD) of human IGSF11 (VSIG3), HIS-tagged (human, UniProt Q5DX21 23-241, biotinylated in the ELISA of Example 4 (site not stated)); experiment: ELISA, coated IGSF11-HIS, IgG1 format; EC50 grade (* >1 nM, ** 0.05-1 nM, *** 0.02-0.05 nM, **** <0.02 nM)
T2 construct: also called HIS-IGSF11; IGSF11-HIS; not shown: HIS6 tag
T2 sequence: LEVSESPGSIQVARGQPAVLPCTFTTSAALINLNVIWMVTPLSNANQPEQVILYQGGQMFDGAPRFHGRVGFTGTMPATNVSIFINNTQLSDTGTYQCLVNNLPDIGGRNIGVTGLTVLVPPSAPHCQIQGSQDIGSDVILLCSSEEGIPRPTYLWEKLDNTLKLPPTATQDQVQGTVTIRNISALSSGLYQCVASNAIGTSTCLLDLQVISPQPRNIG

[8] = target: T1, human IGSF11 (VSIG3) expressed on the …; experiment: FACS, IgG1 format, recombinant HEK cells expressing IGSF11 (HEK-OE)
[9] = target: T3, IGSF11 (VSIG3), construct used in SPR and BLI not stated (UniProt Q5DX21 23-241, limits assumed); experiment: SPR (Biacore), IgG1 format; IGSF11 construct not stated
T3 sequence (looked up): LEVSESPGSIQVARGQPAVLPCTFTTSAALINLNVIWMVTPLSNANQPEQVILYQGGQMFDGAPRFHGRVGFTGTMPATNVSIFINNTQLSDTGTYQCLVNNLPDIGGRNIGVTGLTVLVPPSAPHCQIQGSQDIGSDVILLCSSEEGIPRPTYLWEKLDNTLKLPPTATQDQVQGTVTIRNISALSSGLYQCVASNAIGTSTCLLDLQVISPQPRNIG

percentage binding [1]: 1.3%
percentage binding (CL-11 (C) [2]): 2.91%
percentage binding [3]: 1.6%
percentage binding [4]: 5.97%
percentage binding (CL-11 (C) [5]): 1.95%
percentage binding [6]: 1.17%
B1: A-015 (human IgG1 format) (antibody, V domains shown)
VH: not shown
VL: QPVLTQSPSASASLGASVKLTCTLSSGHTNYAIAWRQQQPGKAPRYLMLLNSDGSHTRGGGIPDRFSGSSSGAERYLTISSLQSEDEADYYCMIWHNNAWVFGGGTKLAVL
notes: human IgG1 format

EC50 [7]: < 0.02 nM
B2: A-016 (human IgG1 format) (antibody, V domains shown)
VH: QVQLQESGAEVKKPGASVKVSCKASGYTFTGYYMHWVRQAPGQGLEWMGGIIPIFGTANYAQKFQGRVTITADESTSTAYMELSSLRSEDTAVYYCAGAGMELTRSGAYYYYGMDVWGQGTTVTVSS
VL: QSALTQPASVSGSPGQSITISCTGTSSDIGGYTFVSWYQQHPGKAPKVMIHDVNNRPSGISNRFSGSKSGNTASLTISGLQAEDEADYYCSSVTSTNTYVFGTGTKVTVL
notes: human IgG1 format

EC50 [7]: 0.02 to 0.05 nM
EC50 [8]: > 50 nM
B3: A-035 (human IgG1 format) (antibody, V domains shown)
VH: QVQLVQSGAEVKKPGASVKVSCKASGYTFTGYYMHWVRQAPGQGLEWMGWINPNSGNTGYAQKFQGRVTMTRNTSISTAYMELSSLRSEDTAVYYCARGRLERGYWYFDLWGRGTLVTVSS
VL: NFMLTQPHSVSESPGRTVTISCTRSSGSITSNYVQWYQQRPGSAPTILIYEDKERPSEVPDRFSGSIDISSNSASLTISGLKTEDEADYYCQSYGGTSQGVLFGGGTKVTVL
notes: human IgG1 format

EC50 [7]: 0.05 to 1 nM
B4: A-009 (human IgG1 format) (antibody, V domains shown)
VH: QVQLVQSGAEVKKPGSSVKVSCKASGGTFSSYAISWVRQAPGQGLEWMGGIIPIFGTANYAQKFQGRVTITADESTSTAYMELSSLRSEDTAVYYCARGRGFGELYFDYWGQGTLVTVSS
VL: ETTLTQSPATLSVSPGERATLSCRASQGVRSNIAWYQQKPGQAPRLLIYDSSTRATGIPARFSGSGSGTEFTLTISSLQSEDFAVYSCQQYKNWPRTFGQGTKVEIK
notes: human IgG1 format

EC50 [7]: 0.05 to 1 nM
B5: A-029 (human IgG1 format) (antibody, V domains shown)
VH: QVQLVQSGAEVKKPGSSVKVSCKASGGTFSSYAISWVRQAPGQGLEWMGGIIPIFGTANYAQKFQGRVTITADESTGTAYMELSSLRSEDTAVYYCARSYYYYYGMDVWGQGTTVTVSS
VL: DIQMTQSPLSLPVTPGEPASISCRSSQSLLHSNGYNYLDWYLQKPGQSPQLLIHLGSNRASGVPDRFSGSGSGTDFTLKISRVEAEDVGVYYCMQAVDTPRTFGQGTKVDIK
notes: human IgG1 format

EC50 [7]: < 0.02 nM
Kd [9]: 100 to 250 nM
B6: A-004 (human IgG1 format) (antibody, V domains shown)
VH: EVQLVESGGGLVKPGGSLRLSCAASGFTFSSYSMNWVRQAPGKGLEWVSSISSSSSYIYYADSVKGRFTISRDNAKNSLYLQMNSLRAEDTAVYYCARGQLLWFGESALIDAFDIWGQGTMVTVSS
VL: EIVLTQSPSSLSASVGDRVTITCRASQSISSYLNWYQLKPGKAPKLLIYAASILQSGVPSRFSGSGSGTDFTLTISSLQPEDFAAYYCQQSYSTPRTFGQGTKLEIK
notes: human IgG1 format

EC50 [7]: 0.02 to 0.05 nM
B7: A-008 (human IgG1 format) (antibody, V domains shown)
VH: QLQLQESGPGLVKPSETLSLTCTVSGGSISSSGYYWGWIRQPPGKGLEWIGSIYYSGSTYYNPSLKSRVTISVDTSKNQFSLKLSSVTAADTAVYYCARHRVRFGEFDAFDIWGQGTMVTVSS
VL: QAVLTQPPSVSGAPGERVTLSCTGTSSNVGADFDVHWYQQFPGTAPRLLIFGSDNRPSGVPDRFSGSKSGTSASLAITGLQVEDEADYYCQAYDVRLSGWVFGGGTKLTVL
notes: human IgG1 format

percentage binding [1]: 2.01%
percentage binding (CL-11 (C) [2]): 3.47%
percentage binding [3]: 3.81%
percentage binding [4]: 64.4%
EC50 [8]: > 50 nM
percentage binding (CL-11 (C) [5]): 3.6%
percentage binding [6]: 11.6%
B8: A-026 (human IgG1 format) (antibody, V domains shown)
VH: QVQLQESGPGLVKPSQTLSLTCTVSGGSISSGGYYWSWIRQHPGKGLEWIGYIYYSGSTYYNPSLKSRVTISVDTSKNQFSLKLSSVTAADTAVYYCASWSLGTSNHGWFDPWGQGTLVTVSS
VL: QSVLTQPPSASGTPGQRVTISCSGSSSNIGSNTVNWYQQLPGTAPKLLISDNNNRPSGVPDRFSGSKSGTSASLAITGLQAEDEADYYCQSYDSNLSGWVFGGGTKLTVL
notes: human IgG1 format

From patent US20210061908A1 (IOMX THERAPEUTICS, published 2021)
